Source: patent US20130245224A1
“And” between values parts separate entries of the source, which are not always exact repeats. Identical values can stand only once.

Columns and labels:
[1] = molecular target: Gammanorm 165 mg/ml (Octapharma), diluted to 1 mg/ml in Equilibration buffer; test: column breakthrough, ligand on agarose, residence time 6.0 min
[2] = molecular target: Gammanorm 165 mg/ml (Octapharma), diluted to 1 mg/ml in Equilibration buffer; test: column breakthrough, ligand on agarose, residence time 2.4 min

Regular Z2: ligand dimer containing two copies of protein Z (SEQ ID No. 3 but without the P57I substitutions) (designed binder)
Qb5 (dynamic binding capacity at 5% breakthrough) [1]: 38.1 mg/ml resin and 38.5 mg/ml resin
Qb10 (dynamic binding capacity at 10% breakthrough) [1]: 40.6 mg/ml resin and 40.4 mg/ml resin
Qb80 (dynamic binding capacity at 80% breakthrough) [1]: 46.7 mg/ml resin and 47.1 mg/ml resin
Qb5 (dynamic binding capacity at 5% breakthrough) [2]: 28.5 mg/ml resin and 29.9 mg/ml resin
Qb10 (dynamic binding capacity at 10% breakthrough) [2]: 31.4 mg/ml resin and 32.2 mg/ml resin
Qb80 (dynamic binding capacity at 80% breakthrough) [2]: 43.8 mg/ml resin and 46.1 mg/ml resin
